In patent publication US20170145113A1 (Genentech, published 2017):
Residue numbers refer to the chain shown, from its start. In names and notes the source's numbering stands.

B1: AG (Fab, V domains shown)
VH: EVQLVQSGAEVKKPGASVKVSCKASGYTFTDSEMHWVRQAPGQGLEWIGGVDPETAGAAYNQKFKGRATITRDTSTSTAYLELSSLRSEDTAVYYCTRGYDYDYALDYWGQGTLVTVSS
VL: DIQMTQSPSSLSASVGDRVTITCRASSSVNFIHWYQQKPGKAPKPLISATSNLASGVPSRFSGSGSGTDFTLTISSLQPEDFATYYCQQWSSNPWTFGQGTKVEIK
notes: single member of the group m42; also called h15H6.v2 HC-D55A HC-G56 Fab
B2: h15H6.v2 HC-D55E HC-G56 Fab (Fab, V domains shown)
VH: B1 VH with A56E
VL: B1 VL
notes: Produced as Fab; also called EG
B3: DA (Fab, V domains shown)
VH: B1 VH with A56D, G57A
VL: B1 VL
notes: single member of the group m42; also called h15H6.v2 HC-D55 HC-G56A Fab
B4: SG (Fab, V domains shown)
VH: B1 VH with A56S
VL: B1 VL
notes: single member of the group m42; also called h15H6.v2 HC-D55S HC-G56 Fab
B5: QP_EG (Fab, V domains shown)
VH: B1 VH with A56E
VL: B1 VL with N93Q
notes: also called h15H6.v2 LC-N94Q LC-P95 HC-D55E HC-G56 Fab; copies: 1 + 1
B6: SP_EG (Fab, V domains shown)
VH: B1 VH with A56E
VL: B1 VL with N93S
notes: also called h15H6.v2 LC-N94S LC-P95 HC-D55E HC-G56 Fab; copies: 1 + 1
B7: EP_EG (Fab, V domains shown)
VH: B1 VH with A56E
VL: B1 VL with N93E
notes: also called h15H6.v2 LC-N94E LC-P95 HC-D55E HC-G56 Fab; copies: 1 + 1
B8: h15H6.v2 LC-N94E LC-P95 Fab (Fab, V domains shown)
VH: B1 VH with A56D
VL: B1 VL with N93E
notes: Produced as Fab; also called EP
B9: h15H6.v2 LC-N94A LC-P95 Fab (Fab, V domains shown)
VH: B1 VH with A56D
VL: B1 VL with N93A
notes: Produced as Fab; also called AP
B10: combination mutant LC5.HC3 Fab (Fab, V domains shown)
VH: B1 VH with T28K, A56D
VL: B1 VL with N52E
notes: Fab
B11: combination mutant LC7.HC3 Fab (Fab, V domains shown)
VH: B1 VH with T28K, A56D
VL: B1 VL with S91Y
notes: Fab
B12: combination mutant LC7.HC5 Fab (Fab, V domains shown)
VH: B1 VH with M34L, A56D
VL: B1 VL with S91Y
notes: Fab
B13: combination mutant LC3.HC1 Fab (Fab, V domains shown)
VH: B1 VH with T30K, A56D
VL: B1 VL with N30E
notes: Fab
B14: h15H6.v2 variant LC7 (LC-S92Y) Fab (Fab, V domains shown)
VH: B1 VH with A56D
VL: B1 VL with S91Y
notes: Fab-Flag tag fusion from 293T cells
B15: combination mutant LC7.HC1 Fab (Fab, V domains shown)
VH: B1 VH with T30K, A56D
VL: B1 VL with S91Y
notes: Fab
B16: h15H6.v2 variant LC3 (LC-N31E) Fab (Fab, V domains shown)
VH: B1 VH with A56D
VL: B1 VL with N30E
notes: as for B14
B17: combination mutant LC5.HC5 Fab (Fab, V domains shown)
VH: B1 VH with M34L, A56D
VL: B1 VL with N52E
notes: Fab
B18: combination mutant LC7.HC2 Fab (Fab, V domains shown)
VH: B1 VH with T30R, A56D
VL: B1 VL with S91Y
notes: Fab
B19: APEG.LC3.HC2 (Fab, V domains shown)
VH: B1 VH with T30R, A56E
VL: B1 VL with N30E, N93A
B20: APEG.LC7.HC3 (Fab, V domains shown)
VH: B1 VH with T28K, A56E
VL: B1 VL with S91Y, N93A
B21: APEG.LC7.HC1 (Fab, V domains shown)
VH: B1 VH with T30K, A56E
VL: B1 VL with S91Y, N93A
B22: APEG.LC347.HC13 (Fab, V domains shown)
VH: B1 VH with T28K, T30K, A56E
VL: B1 VL with N30E, N52H, S91Y, N93A
notes: single member of the group m82
B23: APEG.LC37.HC13 (Fab, V domains shown)
VH: B1 VH with T28K, T30K, A56E
VL: B1 VL with N30E, S91Y, N93A
notes: as for B22
B24: APEG.LC347.HC23 (Fab, V domains shown)
VH: B1 VH with T28K, T30R, A56E
VL: B1 VL with N30E, N52H, S91Y, N93A
notes: as for B22
B25: APEG.LC3.HC1 (Fab, V domains shown)
VH: B1 VH with T30K, A56E
VL: B1 VL with N30E, N93A
notes: as for B22
B26: APEG.LC37.HC23 (Fab, V domains shown)
VH: B1 VH with T28K, T30R, A56E
VL: B1 VL with N30E, S91Y, N93A
notes: as for B22
B27: APEG.LC7.HC2 (Fab, V domains shown)
VH: B1 VH with T30R, A56E
VL: B1 VL with S91Y, N93A

The binders below were run against T1, His-tagged human HtrA1 protease domain (human, UniProt Q92743 161-367) (assay: BIACORE SPR, single-cycle kinetics; Fab analyte over captured human HtrA1).
T1 construct: His-tagged protease domain; also called huHtrA1-PD-His; huHtrA1-PD
T1 sequence (Q92743 other isoform, or with tags, fused parts or gaps limits assumed): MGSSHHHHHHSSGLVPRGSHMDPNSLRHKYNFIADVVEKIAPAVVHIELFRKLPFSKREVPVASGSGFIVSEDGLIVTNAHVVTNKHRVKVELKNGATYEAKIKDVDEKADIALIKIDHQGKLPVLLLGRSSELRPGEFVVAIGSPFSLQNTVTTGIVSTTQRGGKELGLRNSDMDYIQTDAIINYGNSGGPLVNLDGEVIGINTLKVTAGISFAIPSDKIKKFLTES

Which Kd does the source give for B1 here?
The Kd was 760 pM.

And the koff?
The koff was 0.00035 s⁻¹.

What about the kon of the same binder?
The kon was 460000 M⁻¹ s⁻¹.

Which Kd does the source give for B2 here?
The Kd was 550 pM.

And the koff?
The koff was 0.00021 s⁻¹.

And the kon?
Its kon is 380000 M⁻¹ s⁻¹.

Which results are given for B3?
Kd: 840 pM; koff: 0.00027 s⁻¹; kon: 320000 M⁻¹ s⁻¹

With B4 as the binder, how does the Kd read?
Its Kd is 780 pM.

What about the koff of the same binder?
The koff was 0.00032 s⁻¹.

What about the kon of the same binder?
The kon was 410000 M⁻¹ s⁻¹.

What follows are binders tested against T1, His-tagged human HtrA1 protease domain (assay: BIACORE SPR, Fab analyte, Human HtrA1-PD (N=2)).

What does the source list for B5?
Kd: 800 pM; koff: 0.00029 s⁻¹; kon: 380000 M⁻¹ s⁻¹

B6 was tested. Which Kd did it give?
The Kd was 800 pM.

What about the koff of the same binder?
The koff was 0.00029 s⁻¹.

And the kon?
The kon was 350000 M⁻¹ s⁻¹.

Which results are given for B7?
Kd: 400 pM; koff: 0.00018 s⁻¹; kon: 450000 M⁻¹ s⁻¹

Biological target: T1, His-tagged human HtrA1 protease domain
Assay: BIACORE SPR, single-cycle kinetics; Fab analyte over captured human HtrA1
Remark: another data set of the same source

How did the Kd turn out when B8 was run?
Its Kd is 330 pM.

And the koff?
Its koff is 0.00017 s⁻¹.

And the kon?
Its kon is 520000 M⁻¹ s⁻¹.

What does the source list for B9?
Kd: 310 pM; koff: 0.00014 s⁻¹; kon: 450000 M⁻¹ s⁻¹

Each binder was assayed against T1, His-tagged human HtrA1 protease domain (assay: SPR (BIACORE T200), huHtrA1-PD-His captured by anti-His, Fab injected).
Protocol: These combination mutants included both a variant light chain and a variant heavy chain. BIACORE™ kinetic analysis was performed (as described below in Section C) using the combination mutants.
(§1) To determine the binding affinity of selected Fab variants for HtrA1, SPR measurement with a BIACORE™ T200 instrument was performed. Briefly, a series S sensor chip CM5 was activated with 1-EDC and NHS reagents according to the supplier's instructions, and anti-His antibody was coupled to achieve 200-300 response units (RU), then following by blocking un-reacted groups with 1 M ethanolamine. For kinetics measurements, approximately 5 nM of huHtrA1-PD-His was first injected at 10 μl/min flow rate to capture approximately 100 RU at 2 different flow cells (FC), except for FC1 (which served as a reference). Next, 5-fold serial dilutions of Fab in HBS-P buffer (0.01M HEPES pH 7.4, 0.15M NaCl, 0.005% surfactant P20) from low (0.8 nM) to high (50 nM) were injected (flow rate: 30 μl/min). The binding responses on HtrA1 were corrected by subtracting of RU from a blank flow cell. The sensorgram was recorded and subject to reference and buffer subtraction before evaluating by BIACORE® T200 Evaluation Software (version 2.0). Association rates (kₒₙ) and dissociation rates (koff) were calculated using a simple one-to-one Langmuir binding model. The equilibrium dissociation constant (KD) was calculated as the ratio of koff/kₒₙ.

With B10 as the binder, how does the Kd read?
The Kd was 1080 pM.

And the koff?
Its koff is 0.000251 s⁻¹.

What about the kon of the same binder?
Its kon is 233000 M⁻¹ s⁻¹.

Which Kd does the source give for B11 here?
The Kd was 335 pM.

What about the koff of the same binder?
The koff was 0.000237 s⁻¹.

And the kon?
Its kon is 709000 M⁻¹ s⁻¹.

For B12, which Kd is on record?
Its Kd is 745 pM.

What about the koff of the same binder?
The koff was 0.000303 s⁻¹.

What about the kon of the same binder?
Its kon is 406000 M⁻¹ s⁻¹.

With B13 as the binder, how does the Kd read?
The Kd was 88.9 pM.

What about the koff of the same binder?
Its koff is 7.95e-05 s⁻¹.

And the kon?
The kon was 885000 M⁻¹ s⁻¹.

With B14 as the binder, how does the Kd read?
The Kd was 1370 pM.

And the koff?
Its koff is 0.000188 s⁻¹.

And the kon?
The kon was 137000 M⁻¹ s⁻¹.

What does the source list for B15?
Kd: 772 pM; koff: 0.000267 s⁻¹; kon: 347000 M⁻¹ s⁻¹

With B16 as the binder, how does the Kd read?
The Kd was 905 pM.

What about the koff of the same binder?
The koff was 0.000115 s⁻¹.

What about the kon of the same binder?
Its kon is 127000 M⁻¹ s⁻¹.

Which results are given for B17?
Kd: 877 pM; koff: 0.000296 s⁻¹; kon: 337000 M⁻¹ s⁻¹

B18 was tested. Which Kd did it give?
The Kd was 95.5 pM.

And the koff?
Its koff is 0.000189 s⁻¹.

And the kon?
The kon was 1.97e+06 M⁻¹ s⁻¹.

Biological target: T1, His-tagged human HtrA1 protease domain
Assay: as above
Remark: another data set of the same source
Protocol: as §1

Which results are given for B14?
Kd: 335 pM; koff: 0.000193 s⁻¹; kon: 578000 M⁻¹ s⁻¹

How did the Kd turn out when B16 was run?
The Kd was 480 pM.

And the koff?
Its koff is 0.00013 s⁻¹.

And the kon?
The kon was 270000 M⁻¹ s⁻¹.

The binders below were run against T1, His-tagged human HtrA1 protease domain (assay: BIACORE T200 SPR; Fab analyte over huHtrA1-PD-His captured by anti-His antibody).
Protocol: as §1

Which results are given for B19?
Kd: 117 pM; koff: 4.08e-05 s⁻¹; kon: 350000 M⁻¹ s⁻¹

B20 was tested. Which Kd did it give?
The Kd was 332 pM.

And the koff?
Its koff is 7.93e-05 s⁻¹.

What about the kon of the same binder?
Its kon is 239000 M⁻¹ s⁻¹.

B21 was tested. Which Kd did it give?
Its Kd is 137 pM.

And the koff?
Its koff is 2.75e-05 s⁻¹.

What about the kon of the same binder?
Its kon is 200000 M⁻¹ s⁻¹.

How did the Kd turn out when B22 was run?
The Kd was 131 pM.

What about the koff of the same binder?
The koff was 4.88e-05 s⁻¹.

And the kon?
Its kon is 371000 M⁻¹ s⁻¹.

What does the source list for B23?
Kd: 95 pM; koff: 4.09e-05 s⁻¹; kon: 431000 M⁻¹ s⁻¹

What does the source list for B24?
Kd: 163 pM; koff: 6.47e-05 s⁻¹; kon: 397000 M⁻¹ s⁻¹

Which Kd does the source give for B13 here?
The Kd was 89.8 pM.

How did the Kd turn out when B25 was run?
Its Kd is 106 pM.

What about the koff of the same binder?
Its koff is 4.55e-05 s⁻¹.

And the kon?
The kon was 428000 M⁻¹ s⁻¹.

B26 was tested. Which Kd did it give?
Its Kd is 146 pM.

What about the koff of the same binder?
The koff was 6.41e-05 s⁻¹.

And the kon?
The kon was 438000 M⁻¹ s⁻¹.

For B27, which Kd is on record?
The Kd was 309 pM.

And the koff?
The koff was 6.6e-05 s⁻¹.

What about the kon of the same binder?
The kon was 213000 M⁻¹ s⁻¹.
